# Laboratory results as given in the DeepSol protein solubility set.
# Assay: soluble on expression in E. coli; label from the status in PepcDB or PDB records
row,Sequence,soluble on expression in E. coli
1,MAHHHHHHMCAPLYVSPAVQELAQLNSEAERLMLKRAWCVHTKAHLLRELPWAARDVAAYRVALREALQSFTESQQDAFLIDVVYAQFVCAEGGVLRACVQHALFLDLTYDVRLQQWTLVPLHWNIFTTSAGALLLTLQSVLAGPHAQTPCTPPAAPATAARAPLIAHSRAHGTVDSASPLPEASTPASFVRVDPHDREALHRFMRLAFEQEGLSGELHASNRLVCAVVMDTFAIQLQSLQQSFFTGGGLGRLVEMEVRPGTLISFHLSLPELFVPSAPVAHVKMTVAGGTVMLECVRGTDLSTRRVTLPLGTSSLVASGAVGVNTATWKSSMTVVDMEALLWQCVCASAPS,not soluble
2,MIDHQHLRLFQFCDSQFPTGAFSHSFGLETYIQRETVHDTETFIKWLHLFINEQLTYSDGIAMRIVYHALINNDKDKILDINQKLFVQNLPKETRIGAKQMGTRMVKLALDLYDSEWIQWYYNQMKNNKIKLHPAVCFTMLGHFLGVDVESIIDYYLYQNISSLTQNAVRAIPLGQTAGQQVVTEMIAHIEKTRNHILELDEIDFGMTAPGLELNQMEHENVHVRIFISLEHHHHHH,not soluble
3,MSLMKNILAIQSHVVYGHAGNSAAEFPMRRLGANVWPLNTVQFSNHTQYGKWTGCVMPPSHLTEIVQGIAAIDKLHTCDAVLSGYLGSAEQGEHILGIVRQVKAANPQAKYFCDPVMGHPEKGCIVAPGVAEFHVRHGLPASDIIAPNLVELEILCEHAVNNVEEAVLAARELIAQGPQIVLVKHLARAGYSRDRFEMLLVTADEAWHISRPLVDFGMRQPVGVGDVTSGLLLVKLLQGATLQEALEHVTAAVYEIMVTTKAMQEYELQVVAAQDRIAKPEHYFSATKLEGGSHHHHHH,soluble
4,MSLMKLTKLFLATAISLGVSSAVLAADYDLKFGMNAGTSSNEYKAAEMFAKEVKEKSQGKIEISLYPSSQLGDDRAMLKQLKDGSLDFTFAESARFQLFYPEAAVFALPYVISNYNVAQKALFDTEFGKDLIKKMDKDLGVTLLSQAYNGTRQTTSNRAINSIADMKGLKLRVPNAATNLAYAKYVGASPTPMAFSEVYLALQTNAVDGQENPLAAVQAQKFYEVQKFLAMTNHILNDQLYLVSNETYKELPEDLQKVVKDAAENAAKYHTKLFVDGEKDLVTFFEKQGVKITHPDLVPFKESMKPYYAEFVKQTGQKGESALKQIEAINPEGGSHHHHHH,soluble
5,QDSTSDLIPAPPLSKVPLQQNFQDNQFHGKWYQVGRAGNAALREDKDPQKMTAQIYELKEDKSYNVTAVRFRKKKCDYATMTFVPGSQPGEFTLGNIKSYPGLTSYLVRVVSTNYNQHAMVFFKKVSQNREYFSITLLGRTKELASELKENFIRFSKSLGLPENHIVFPVPIDQCIDGSAHHHHHH,soluble
6,MSLEKKTANDVVTLARAQDRLTTLEYIEAIFEDFLEFHGDRYFADDLAVVGGVATLQGKPVTVVGIQKGRNLPENIERNFGSPNPEGYRKALRLMKQAEKFNRPVITFVNTAGAYCGIGAEERGEGEAIAQNLLEMSDLKVPIISVIIGEGGSGGALALAVADEVWMLEHTIYAVLSPEGFASILWKDGSRAKEAAELMKITATELKELAIVDKVIPEVMNGQPLEQAKINRMLQKAFISKLTELAKLDTETLLEKRYQRFRKYEGHHHHHH,soluble
7,MGSDKIHHHHHHMANQLILLKKDFFTDEQQAVTVADRYPQDVFAEHTHEFCELVMVWRGNGLHVLNERPYRITRGDLFYIRAEDKHSYTSVNDLVLQNIIYCPERLKLNVNWQAMIPGFQGAQWHPHWRLGSMGMNQARQVINQLEHESNGRDPLANEMAELLFGQLVMTLKRHRYATDDLPATSRETLLDKLITALANSLECPFALDAFCQQEQCSERVLRQQFRAQTGMTINQYLRQVRICHAQYLLQHSPLMISEISMQCGFEDSNYFSVVFTRETGMTPSQWRHLSNQSD,not soluble
8,RSSLDLQLKNARNLAGLIIHDIDGYMMKGDSSEVDRFISAVKSKNFIMDLRVFDEQAKEVSPTPSQTPNAKIQQAIAAGRTLEFKETLDGKRTLSLVLPFPNEQRCQSCHDAGAAYLGGLLVTTSIEEGYEGARH,soluble
9,MGSDKIHHHHHHMPTAAAQENIRWEECPPQVDIASAQCGSIDVPMHYSDPSLGDISVGFVKVPAQGEKHGTIFGNSGGPGGDAYSFFGSQSMNWPEAMYQNYDLVAVQPRGMVGSTPVNCDNIAPGYDFLSLLTREGAFVKESCEIGTPGYTSSLTTDNTANDWERVRQALGDDKISIFGLSYGTYLGSVYATRYPQHTDKVVLDSAMAPSLAWNGIMASQEQGYKNSLNDFFTWVAENNDTYGLGTTPLAVYQNWSNKIVAETGTNPTVAPPPAQVGDVPPAFAWAGQAGADMMTATNPTSVQLQGLATQLLNPGSNQSLSPLLNVTRAYIPQPSTWPMLAGAISGQTPIPDVTDTGDDPYVIESINASVNMQRMVMCNENTVAPDPVAMARMAWTSMVTGDVFDIYSVKFSSGQACSGITPTSGRQPTDGSQLAVQPLLLQGTSDPQTPYWTHNELADAMNAHVVTVNGPGHGQSIGGTNQAINDIVVDYLRTGHTDATWVEGNTPTPITAG,not soluble
10,MSRRGGAPSRPPRPPIRYVATAPKPSRVVTRSRPEGVRWLRADGTPNWSQRVRRLPGDAKELASRPAVSVHKSAPILSAAEKIASHRVRGLVVIKGSGDAVLEGILLATDLVNYLGGGDYFQIVENRHRDSIYSALRKEVVATIMNRHPIAVSVSDDLDTILRIMVGEGIGFLPVLYDDGTLHGVITERNILGRIADIP,not soluble
11,VFLPTNAQYQLLVVGVSPWDTPSPSGRISWGSAWPHQARRAQTCQRVRRHWMIDTTEAAYRLTYQPDGTSITVRENLVDILARELLGPIRGPQEVLPFSPRSQYLVGHLAPVKLTGAALIDDNAVQARANAEALAEGGGVPAYAADETTPTPTTTPKTAHPSRA,not soluble
12,MSLNSVPNDLQTWKRFVKDGVLDEARLRKRIAESWHRCKKAEVNPYLEKGPKVLQQTELDQQSKKHSFFLTTAKPYLEKLLPAIKEMEMMALLIDSDGVVLALDGHPRALYEAKRINFVEGACWTETAVGTNAIGTALHISEPVAIQGSEHYSIASHLWNCSAAPIHHEDGSLAGVIDISCPAAGAHPHMLGIATAIAYAAERELAAKSREKELELISRFGERAASSVPMVLCNTKQHIISASMPIRTSMPDWQGRHLYELKERGYSIENAVTIGDGGTCFYLSEQKKKKAFRFNGVIGQSGRSQAMLMHLERAAATDASVCLSGETGTGKEVAARALHENSERRHGPFVAVNCGAIPSDLIESELFGYAEGAFTGAKRNGYKGAFQKANQGTLFLDEIGEISHSMQVALLRVLQERKITPIGGTKEIPVDIRVIAATHCDLRELAENGKIREDLFYRLHVYPIELPPLRDRTEDIPDLFEYYKQKNHWPGDLPSDFCNVLKQWKWPGNIRELFNVFERLSIRFPDGRLRDESLPALLEAAGLPASSAEKKPAAAGVLTFREQIQKDMMIKALESAKGNVSQAAKISGIPRSTFYKRLKKFNLSAESEGGSHHHHHH,soluble
13,MAHHHHHHMESKVPLFLYFMVTNHPEVKQYTELLCHQVDQANRRLKDENFGDVYQEFGKDAGLAIKLGMVDCLQEPGLMAKFHIDPHMFPLIYFVRNKVFCDKMVGVVTESHVKEAVEAFIDDAKLESKSESEGASLFQKVRRQDDDDENAMTLIAAAHGKMQAGDPAKGKQLFEKALRMSMEDMEVVKKRYGVPNKKMTPELWAKLKREPCYNSAPEALCGLAMCAMASKQRDEAFRLAARVREEFPFAPQDMRGVAEAVVRIELIQVVDYDPDTDNYMRLLKFDELVSEPAQFYKHHLKRAVAFYVEGVAGQAIEECIRLIRAEPKLLSALKEGGIVPNDLRLGPTAVTPARQVIRAIFEALGPTNERVEKGRKLLQLYL,not soluble
14,MSLSEDLRFFEFFAGGGMARAGLGNQWQCLFANDMDRIKASTYIQNWGKDHFDSRDIREVNSEDLERNGDLAWASFPCQDLSVAGNGLGIGSSSAKDFTRSGALWPFLDLIDTLRQEERQPPLLVLENVVGLLTLEGGRDFAAICERLGEIGYRYGAVIIDAKHFLPQSRPRVFIIAVQRNIDIPCKLSRGMATANWHTPTLLRAYKSLTPILHADWVWWELGDAPILQENALESFIQREGVLWNTPEETKRIISMMAPAHLARLENAKCAGGVAVGSLYLRMRREGGINKQRAEITFSPLLGCLRTPRGGASRPRIIVVESGHVRTRLLTICEAARLMGLANTYILPEIYHHAFKVIGDGVAVPAVRFLAERLLEPLAIAAEGHHHHHH,not soluble
15,MNLLETVEQDTMPTHYKQMTQVEMIARVTEIKAQLGENLFIPCHHYQKDEVVPFADAIGDSLQLAQIAAQNKKAKHIVFCGVHFMAETADMLTTSEQIVTLPDMRAGCSMADMADIHQLTNAWPKLQTLFGDTILPVTYINSTAAIKSFVGEHGGTTVTSSNATKIVSWALEQKERIFFLPDQHLGRNTAFELGIPLEHMAIWNPIKNELEYEGNLDDCKVILWKGYCSVHQHFTVKNIENIRKNHPNMRIIVHPECTHEVVSLADDSGSTKKIVTEINNAAPGTEWAVGTEANLVGRIIQENPDKKIVSLNPFMCPCMTMNRIDLPHLLWTLEAIQNGEKRNQIKVDEQTTKFALKALERMLQLS,not soluble
16,MLFLDSVAMKEKPEGREEYPFSVPAMRHLERLEFKTPITFFAGNNGSGKSTLLEGLAAGMTAYAIGNHGDVKGDLYLQHAETVAKAFYFARKKYPKIRMFLRAEDVLGYIRRQNENALDDFRWEREKALKKGEDFPEETPEIFRGIVRNNSLDRRSHGEGFLDIMHRRLHGAGLYFLDEPESPLSPQKQLELAAIIRQAADSGGQLIIATHSPVLLAIPEATIYYFDEDGITERLYDELENIAFLRRFLDRPSKYLDDLEHHHHHH,soluble
17,SRVDKFSKSDIIVSPSILSANFSKLGEQVKAIEQAGCDWIHVDVMDGRFVPNITIGPLVVDSLRPITDLPLDVHLMIVEPDQRVPDFIKAGADIVSVHCEQSSTIHLHRTINQIKSLGAKAGVVLNPGTPLTAIEYVLDAVDLVLIMSVNPGFGGQSFIESQVKKISDLRKICAERGLNPWIEVDGGVGPKNAYKVIEAGANALVAGSAVFGAPDYAEAIKGIKTSKRPE,soluble
18,MVQPDDVLLGRYKIRFDIGPGRIGRIFAVLDQQDQSRSRVKVIKVLPMVAGEQFLDDPQTYNEFDFLNHLRGTIGVPNIIQHFQVGRERVMMMDKYLATLEQFRTRCDDRRISDLNIIKIAVRLVNVLEAIHQKGVIHRDLKTTNVMIRSRGQSEVNLVLIDYGLSTFNGTPPRALAPDAKSPEIMFRGHTHVSPALEEGLKADAVDDLQMLAIMLIWCSAYHPFGPIGQESSRKKAEFITNPVKYVKGRPFLRPLMTAIMAQPRGTRPNYQAILDAAAGPFPIDDIRDSLKTEISLLGVRFL,not soluble
19,MQCELCGKEVKNIIKTRVEGVEMNVCEACAKFGMSPKGYSRKPRAVFKNETKQKQAKRPRKDMFDNLKTLVEDYGSLVKEAREKKNMTLEELSRAVGIKESLIHKIERNEIEPEEKYVKILEKALGISFYEEGDLNYETSNEDSEFTLGDFIKVKKRK,not soluble
20,VRSYLLRIELADRPGSLGSLAVALGSVGADILSLDVVERGNGYAIDDLVVELPPGAMPDTLITAAEALNGVRVDSVRPHTGLLEAHRELELLDHVAAAEGATARLQVLVNEAPRVLRVSWCTVLRSSGGELHRLAGSPGAPETRANSAPWLPIERAAALDGGADWVPQAWRDMDTTMVAAPLGDTHTAVVLGRPGPEFRPSEVARLGYLAGIVATMLR,soluble
